Assay results: patent US20160279261A1 (Genentech, published 2016)
One block for each binder: values may come before it.

Target: CD33 (UniProt P20138 18-364, limits assumed)
Test: cell-based or functional assay

CD33, sequence (P20138 18-364 limits assumed): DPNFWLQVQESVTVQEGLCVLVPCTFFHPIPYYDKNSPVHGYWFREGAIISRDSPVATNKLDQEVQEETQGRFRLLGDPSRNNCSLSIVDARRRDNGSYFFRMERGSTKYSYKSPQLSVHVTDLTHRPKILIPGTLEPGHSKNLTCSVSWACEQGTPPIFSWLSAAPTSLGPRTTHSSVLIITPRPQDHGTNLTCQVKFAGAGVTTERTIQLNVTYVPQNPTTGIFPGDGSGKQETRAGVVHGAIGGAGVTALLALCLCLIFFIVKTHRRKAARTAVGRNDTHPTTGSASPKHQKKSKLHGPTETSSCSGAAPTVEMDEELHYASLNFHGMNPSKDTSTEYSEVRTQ

- EOL-1 IC50 (in vitro cell proliferation assay): 0.37 µg/mL
B1: CD33 CBI-PBD ADC2-2 (antibody, V domains shown)
VH: QVQLVQSGAEVKKPGSSVKVSCKASGGIFSNHAISWVRQAPGQGLEWMGGIIPIFGTANYAQKFQGRVTITADESTSTAFMELSSLRSEDTAVYYCAREWADVFDIWGQGTMVTVSS
VL: EIVLTQSPLSLPVTPGEPASISCRSSQSLLHSNGYNYLDWYLQKPGQSPQLLIYLGVNSVSGVPDRFSGSGSGTDFTLKISRVEAEDVGVYYCMQALQTPWTFGQGTKVEIK

- EOL-1 IC50 (in vitro cell proliferation assay): 0.0181 µg/mL
B2: CD33 CBI-PBD ADC3-2 (antibody, V domains shown)
VH: B1 VH
VL: B1 VL
